Reference: patent US20120102593

Target: histone H4 (rice, extracted from leaves)

B1: histone deacetylase OsHDT1 (protein)
chain: MEFWGLEVKPGQTVKCEPEDERFLHLSQAALGESKKGSDNAVMYVKTDDQKLVIGTLSADKFPQIQFDLVFDKEFELSHTSKTASVFFSGYKVSQPAEEDEMDFDSEEVEDEEEEEKIIPAPRANGKVEGKENEQKKQGKTDSSASKSKAAVNDDDDDDDSAEDDSQDEDLSPEDDDDDSSEDDSSEDDEDESDEEDTPKKPETGKRKVAEIVLKTPSSDKKAKIATPSGQKTGDKKGVHVATPHPAKQASKTPVNDKSKEKSPKSGGGSISCKSCSKTFNSEMALQSHSKAKHPAK
Western blotting of histone extracted from transgenic and wild-type parent and hybrid OsHDT1 plants, using commercial antibodies against histone modifications: HDT1 was capable of deacetylating histone and as such is a histone deacetylase mainly acting at H4K16 site
